B1: TPR t1 (parent)
chain: GACCAAUCUGCCCUCAGAGCUCGAGAACAUCUUCGGAUGCAGAGGAGGCAGGCUUCGGUGGCGCGAUAGCGCCAACGUCCUCAACCUCCAAUGCAUCCCACCACAUGAUGAUGCCUGAAGAGCCUUGGUUUUUUG

Variants of: B1
Assay: polymerase ribozyme fitness, log enrichment relative to wild type (log ratio); higher = more active; in vitro selection for triplet polymerase activity
How it was run: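 Only genotypes with ≥10 input reads and ≥1 read per output were kept after Illumina sequencing of input and output libraries. These libraries were PCR-built, transcribed mutants of each subunit of a heterodimeric triplet polymerase ribozyme, each put through one triplicate in vitro selection round with frozen incubation at −7 °C, gel excision of extended constructs, streptavidin-bead capture and RT-PCR. Fitness is a logarithmic ratio of genotype enrichment to wild-type enrichment, from inverse-variance-weighted replicate averages, with the logarithm in base 2.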

| Variant | polymerase ribozyme fitness (log ratio) |
| --- | --- |
| GACCAAUCUGCCCUCAGAGCUCGAGAACAUCUUCGGAUGCAGAGGACGCAGGCUUCGGUGGCGCGAUAGCGCCAACGUCCUCAACUUCCAAUGCAUCCCACCACUUGAUGAUGCCUGAAGCGCCUUGGUUUUUUG [G47C C86U A105U A121C] | -1.01 |
| GACCAAUCUGCCCUCAGAGCUCGAGAACAUCUUCGGAUGCAGAGGAUGCUGGCUUCGGCGGCGCGAUAGCGCAAACGACCUCAACCUCCAAUGCAUCCCACCACAUGAUGAUGCCUGAAGAGCCUUGGUUUUAUG [G47U A50U U59C C73A U78A U133A] | -2.31 |
| GACCAAUCUGCCCUCAGAGCUCGAGAACAUCUUCGGAUGCAGAGGACGCAGGCUUCGGUGGCGCGAUAGCGCCAACGUCCUCAACCUCCAAUGCAUCCCACCACAUGAUGAUUCCUGAAGAGCCUUGGUUUUUUG [G47C G113U] | -4.11 |
| GACCAAUCUGCCCUCAGAGCUCGAGAACAUCUUCGGAUGCAGAGGACGCAGGCUUCGGUGGCGCGAUAGCGCCAACGUCCUCAACCUCCAAUGCAUCCCACCACAUGAUGAUCCCUGAAGAGCCUUGGUUUUUUG [G47C G113C] | -3.85 |
| GACCAAUCUGCCCUCAGAGCUCGAGAACAUCUUCGGAUGCAGAGGACGCAGGCUUCGAUGGCGCGAUAGCGCCAACGUCCUCAACCUCCAAUGCAUCCCACCACAUGAUGAUGCCUGAAGAGCCUUGGUUUUUUG [G47C G58A] | -1.77 |
| GACCAAUCUGCCCUCAGAGCUCGAGAACAUCUUCGGAUGCAGAGGAUGCAGGCUUCGGUGGCGCGAUAGCGCCAACGUCCUCAACCUCCUAUGCAUCCCACCACAUGAUGAUGCCUCAAGAGCCUUGGUUUUUUG [G47U A90U G117C] | -4.37 |
| GACCAAUCUGCCCUCAGAGCUCGAGAACAUCUUCGGAUGCAGAGGACGCAGGCGUCGCUGGCGCGAUAUCGCCAACGUCCUCAACCUCCAAUGCAUCCCACCACAUGAUGAUGCCUGAAGAGCCUUGGUUUUUUG [G47C U54G G58C G69U] | 1.13 |
| GACCAAUCUGCCCUCAGAGCUCGAGAACAUCUUCGGAUGCAGAGGAAGCAGGCUACGGUGGCGCGAUAGCGCCAACGUCCUCAACCUCCAAUGCAUCCCACCACAUGAUGAUGCCUGAAGAGCCUUGGUUUUUUG [G47A U55A] | -0.45 |
| GACCAAUCUGCCCUCAGAGCUCGAGAACAUCUUCGGAUGCAGAGGACGCAGGCUUCGGUGGCGCGAUAGCGGCAACGUCCUCAACCUCCAAUGCAUCCCACCACAUGAUGAUGCCUGAAGAGCCUUGGUUUUUUG [G47C C72G] | -2.9 |
| GACCAAUCUGCCCUCAGAGCUCGAGAACAUCUUCGGAUGCAGAGGAAGCAGGCUUCGGUGGCGCGAUAUCGCCAACGUCCUCAACAUCCAAUGCAUUCCACCACAUGAUGAUGCUUGAAGAGCGCUGGUUUUUUG [G47A G69U C86A C97U C115U C124G U125C] | -0.107 |
| GACCAAUCUGCCCUCAGAGCUCGAGAACAUCUUCGGAUGCAGAGGACGCAGGCUUCGGUGGCGCGAUAGCGUCAACGUCCUCAACCUCCAAUGUAUCCCACCACAUGAUGAUGCCUGAAGAGCCUUGGUUUUUUG [G47C C72U C94U] | -2.45 |
| GACCAAUCUGCCCUCAGAGCUCGAGAACAUCUUCGGAUGCAGAGGACGCAGGCUUCGGUGGCGCGAUAGCGCCAACGUCCUCAACCUCCAAUGCAUCCCACCACAUGAUGGUGCCUGAAGAGUCUUGGUUUUUUG [G47C A111G C123U] | -3.06 |
| GACCAAUCUGCCCUCAGAGCUCGAGAACAUCUUCGGAUGCAGAGGAAGCAGGCUUCGGUGGCGCGAUAGCGCCAACGUCCUCAACCUCCAAUGCAGCCCACCACAUGAUAAUGCCUGAAGAGCCUUGGUUUUUUG [G47A U96G G110A] | -3.19 |
| GACCAAUCUGCCCUCAGAGCUCGAGAACAUCUUCGGAUGCAGAGGACGCAGGCUGCGGUGGCACGAUAGCGCCAACGUCCUCAACCUCCAAUGCAUCCCACCAUAUGAUGAUGCCUGAAGAGCCUUGGUUUUUUG [G47C U55G G63A C104U] | -3.2 |
| GACCAAUCUGCCCUCAGAGCUCGAGAACAUCUUCGGAUGCAGAGGACGCAGGCUUGGGUGGCGCGAUAGCGGCAACGUCCUUAACCUCCAAUGCAUUCCACCACAUGAUGAAGCCUGAAGAGCCUUGGUUUUUUG [G47C C56G C72G C82U C97U U112A] | -2.21 |
| GACCAAUCUGCCCUCAGAGCUCGAGAACAUCUUCGGAUGCAGAGGACGCAGGCUGCGGUGGCGCGAUAGCUCCAACGUCCUCAACCUCCAAUGCAUCCCACCACAAGAUGAUGCCUGAAGAGCCUUGGAUUUUUC [G47C U55G G71U U106A U129A G135C] | -2.24 |
| GACCAAUCUGCCCUCAGAGCUCGAGAACAUCUUCGGAUGCAGAGGACGCAGGCUUCGGUGGCGCGAUAGUGCCAACGUCCUCAACCUCCAAUGCAUCCCACCACAUGAUGAUGCCUGAAGAGCCUUGGUUUUUUG [G47C C70U] | -2.2 |
| GACCAAUCUGCCCUCAGAGCUCGAGAACAUCUUCGGAUGCAGAGGAAGCAGGCUUCGGUGGCGCGAUAGCGCCAACGUCCUCAACCUCCAAUGCAUCCCACCACAUGAUGAUGCCUGAAGAGCCUUGGUUUUUUU [G47A G135U] | -2.25 |
| GACCAAUCUGCCCUCAGAGCUCGAGAACAUCUUCGGAUGCAGAGGAAGCAGGCUUCGGUGGCGCGAUAGCCCCAACGUCCUCAACCUCCAAUGCAUCCCACCACAUGAUGAUGCCUGAAGAGCCUUGGUUUUUUG [G47A G71C] | -1.56 |
| GACCAAUCUGCCCUCAGAGCUCGAGAACAUCUUCGGAUGCAGAGGAUGCAGGCUUCGGUGGCGCGAUAGCGCCAACGUCCUCAACCUCCAAUGCAUCCCCCCACAAGAUGAUGCCUGAAGAGCGUUGGUUUUUUG [G47U A100C U106A C124G] | 0.694 |
| GACCAAUCUGCCCUCAGAGCUCGAGAACAUCUUCGGAUGCAGAGGACGCAGGCUUCGGUGGCGAGAUAGCGCCAACGUCCUCAACCUCCAAUGCAUCCCACCAUAUGAUGAUGCCUGAAGAGCCUUGGUUUUUUG [G47C C64A C104U] | -7.34 |

| Variant | polymerase ribozyme fitness (log ratio) |
| --- | --- |
| GACCAAUCUGCCCUCAGAGCUCGAGAACAUCUUCGGAUGCAGAGGACGCAGGCUUCGGUGGCGCGAUAGCGCCAACGUCCUCAACCUCUAAUGCAUCCCACCACAUGAUGAUGCCUGAAGAGCGUUGGUUUUUUG [G47C C89U C124G] | -0.507 |
| GACCAAUCUGCCCUCAGAGCUCGAGAACAUCUUCGGAUGCAGAGGAAGCAGGCUUCGGUGGCGCGAUAGCGCCAACGUCCUCAACCUCCAAUGCAUCCCACCACAUGAUGAUGCCUGAAAAGCCUAGGUUUUUUG [G47A G120A U126A] | -1.73 |
| GACCAAUCUGCCCUCAGAGCUCGAGAACAUCUUCGGAUGCAGAGGACGCAGGCUUCGGUGGCGCGAUAGCGCCAACGUCCUCAACCUCCAAUGCAUCCCACCACAUGAUGAUGCCUGAAGAGGCUUGGUUUUUUG [G47C C123G] | -1.31 |
| GACCAAUCUGCCCUCAGAGCUCGAGAACAUCUUCGGAUGCAGAGGAUGGAGGCUUCGGUGGCGCGAUAGCGCCAACGUCCUCAACCUCCAAUGCAUCCCACCACAUGAUGAUGCCUGAAGAGCCUUGGUUUUUUG [G47U C49G] | -0.991 |
| GACCAAUCUGCCCUCAGAGCUCGAGAACAUCUUCGGAUGCAGAGGACGCUGGCUUCGGUGGCGCGAUAGCGUCAACGUCCCCAACCUCCAAUGCAUCCCACCACAUGAUGAUGUCUGAAGAGCCUUGGUUUUUUG [G47C A50U C72U U81C C114U] | -5.1 |
| GACCAAUCUGCCCUCAGAGCUCGAGAACAUCUUCGGAUGCAGAGGACGCAGGCUUCGGUGGCGCGAUAGCGCCAACGUCCUCAACCUCCAAUGCAUCCCACCACAUGAUGAUGCCUGAAGAGCCAUGGUUUUUUG [G47C U125A] | -2.59 |
| GACCAAUCUGCCCUCAGAGCUCGAGAACAUCUUCGGAUGCAGAGGAAGCAGGCUUCGGUGGCGCGAUAGCGCCAACGCCCUCAACCUACAAUGCAUACCACCACAAGAUGAUGCCUGAAGAGCCUUGGUUUUUUG [G47A U78C C88A C97A U106A] | -5.69 |
| GACCAAUCUGCCCUCAGAGCUCGAGAACAUCUUCGGAUGCAGAGGACGCAGGCUUCGGUGGCGCGAUAGUGCCAACGUCCUCAACCUCUAAUGCAUCCCACCACAUGAUGAUGCCUGAAGAGCCUUGGUUUUUUG [G47C C70U C89U] | -4.18 |
| GACCAAUCUGCCCUCAGAGCUCGAGAACAUCUUCGGAUGCAGAGGACGCAGGCUUCGGUGGCGCGAUAGCGCCAACGUCCUCAACCUCCAAUGCAUCCCACCACAUGAUGAGGCUUGAAGAGCCUUGGUAUUUUG [G47C U112G C115U U130A] | -5.2 |
| GACCAAUCUGCCCUCAGAGCUCGAGAACAUCUUCGGAUGCAGAGGACGCAGGCUUCGGUGGCGCGAUAGCGCCAACGUCCUCAACCUCCAAUGCAUCCCACCACAUGAUGUUGCCUGAAGAGCCUUGGUUUUUUG [G47C A111U] | -4.54 |
| GACCAAUCUGCCCUCAGAGCUCGAGAACAUCUUCGGAUGCAGAGGAUGCAGGCUUCGGUGGCGCGAUAGCGCCAACGUCCUCAACCUCCAAUGCAUCCCUCCACAUGAUGAUGCCAAAAGAGCCUUGGUUUAUUG [G47U A100U U116A G117A U132A] | -5.1 |
| GACCAAUCUGCCCUCAGAGCUCGAGAACAUCUUCGGAUGCAGAGGACACAGGCUUCGGUGGCGCGAUAGCGCCAACGUCCUCAACUUCCUAUGCAUCCCACCACAUGAUGAUGCCUGAAGAGCCUUGGUUUUUUG [G47C G48A C86U A90U] | -2.46 |
| GACCAAUCUGCCCUCAGAGCUCGAGAACAUCUUCGGAUGCAGAGGACGCAGGCUUCGGUGGCGCGAUAGCGCCAACCUCCUCAACCUCCAAUGCAUCUCACCACAUGAUGAUCCCUGAAGAGCCUUGGUCUUUUG [G47C G77C C98U G113C U130C] | -6.15 |
| GACCAAUCUGCCCUCAGAGCUCGAGAACAUCUUCGGAUGCAGAGGAUGGAGGCUUCGGUGGCGCGAUAGUGCCAACGUCCUCAACCCCCAAUGCAUCCCCCCACAUGAUGAUGCCUGAAGAGCCUUGGUUUUUUG [G47U C49G C70U U87C A100C] | -3.16 |
| GACCAAUCUGCCCUCAGAGCUCGAGAACAUCUUCGGAUGCAGAGGAUGCAGGCUUCGGUGGCGCGAUAGCGCCAACGUCCUCAACCUCCAAUGCAUCCCACCACAUGAUGAUGCCUGAUGAGCCUUGGUUUUUUG [G47U A119U] | -1.82 |
| GACCAAUCUGCCCUCAGAGCUCGAGAACAUCUUCGGAUGCAGAGGAAGCAGGCUUCGGUGGCGCGAUAGCGCCAACGUCCUCAACCUCCAAUGCAUCCCACCACAUGAUGAUGCCUGAAGAGCCUUGGUUUUAUG [G47A U133A] | -1.33 |
| GACCAAUCUGCCCUCAGAGCUCGAGAACAUCUUCGGAUGCAGAGGAUGCAGGCUUCGGUGGCGCGAUAGCGCCAACGUCCUCAACCUCCAAUGCCUCCCACCACAUGAUGAUGCCUGAAGAGCCUUGCUUUUUUG [G47U A95C G128C] | -4.33 |
| GACCAAUCUGCCCUCAGAGCUCGAGAACAUCUUCGGAUGCAGAGGAUGCAGGCUUCGGUGGCGCGAUAGCGCCAACGUCCUCAACCUCCAAUGCCACCCACCACAUGAUGAUGCCUGAAGAGCCUUGGUUUUUUG [G47U A95C U96A] | -4.33 |
| GACCAAUCUGCCCUCAGAGCUCGAGAACAUCUUCGGAUGCAGAGGACGCAGGCUUCGGUGGCGCGAUAGCGCCAACGUCCUCAACCUCCAAUGCAUCCCACCACAUGAUGAUGCCUAAAGAGCCUUGGUUUUUUG [G47C G117A] | -2.73 |
| GACCAAUCUGCCCUCAGAGCUCGAGAACAUCUUCGGAUGCAGAGGAAGCAGGCUUCGGUGGCGCGAUAGCUCCAACGUCCUCAACCUCCAAUGCAUCCCACCACAUGAUGAUGCCUGAAGAGACUUGGUUUUUUG [G47A G71U C123A] | -0.967 |
| GACCAAUCUGCCCUCAGAGCUCGAGAACAUCUUCGGAUGCAGAGGACGGAGGCUUCGGUGGCGCGAUAGCGCCAACGUCCUCAACCUCCAAUGCAUCCCACCACAUGAUGAUGCCUGAAGAGCCUUGGUUUUUUG [G47C C49G] | -2.19 |
